Assay results taken from patent publication US20030190687A1 (UAB RESEARCH FOUNDATION, published 2003).

Molecular target: T1, human DR5 on the cell surface (Cos-7 cells transfected with full-length human DR5 cDNA); human cells that … (human, UniProt O14763 56-440)
T1 construct: whole, on cells; also called cell surface DR5; full-length DR5
Assay: radioisotope labeled TRA-8 on a breast cancer line in vitro; reference soluble TRAIL

- fold higher binding activity than soluble TRAIL: 50 fold
B1: anti-human DR5 monoclonal antibody TRA-8 (mouse-mouse hybridoma TRA-8, ATCC PTA-1428) (antibody, mouse IgG1, kappa, V domains shown)
VH: EVMLVESGGGLVKPGGSLKLSCAASGFTFSSYVMSWVRQTPEKRLEWVATISSGGSYTYYPDSVKGRFTISRDNAKNTLYLQMSSLRSEDTAMYYCARRGDSMITTDYWGQGTTLTVSS
VL: DIVMTQSHKFMSTSVGDRVSITCKASQDVGTAVAWYQQKPGQSPKLLIYWASTRHTGVPDRFTGSGSGTDFTLTISNVQSEDLADYFCQQYSSYRTFGGGTKLEIKR
notes: also called monoclonal anti-DR5 antibody (clone: TRA-8); TRA-8 antibody
